Measured values taken from patent EP4740967A1 (Shanghai Escugen Biotechnology Co., Ltd., dated 2026).

T1: human Claudin18.2 (human, UniProt P56856 1-261)
T1 sequence (looked up): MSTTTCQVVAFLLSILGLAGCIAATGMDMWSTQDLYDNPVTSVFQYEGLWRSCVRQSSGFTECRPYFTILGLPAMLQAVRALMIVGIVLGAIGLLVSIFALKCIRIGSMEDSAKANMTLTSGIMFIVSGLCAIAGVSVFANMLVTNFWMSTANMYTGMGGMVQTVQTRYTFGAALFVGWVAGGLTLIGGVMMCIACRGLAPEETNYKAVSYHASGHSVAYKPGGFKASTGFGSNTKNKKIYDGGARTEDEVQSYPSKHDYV


Assays:
Experiment in all cases: cell-based or functional assay
human Claudin18.2 [1] = target: T1, human Claudin18.2
human Claudin18.2 [2] = target: T1, human Claudin18.2; remark: listed apart in the source
human Claudin18.2 [3] = target: T1, human Claudin18.2; remark: listed apart in the source
human Claudin18.2 [4] = target: T1, human Claudin18.2; remark: listed apart in the source

Binder | IC50 of in vitro cell killing on MC38-hClaudin18.2 cells (AlamarBlue cell viability) (human Claudin18.2 [1]) [nM] | IC50 of in vitro cell killing on NUGC4-hClaudin18.2 cells (CCK-8 cell viability, 120 h) (human Claudin18.2 [2]) [nM] | IC50 of in vitro cell killing on HEK293-hClaudin18.2 cells (AlamarBlue cell viability, 72 h) (human Claudin18.2 [3]) [nM] | IC50 of inhibition of proliferation of MC38-hClaudin18.2 cells (AlamarBlue cell viability, 72 h) (human Claudin18.2 [4]) [nM]
9D1-GGFG-Exatecan (antibody, human IgG1, kappa, V domains shown, MC-GGFG-Exatecan linker-drug on reduced interchain cysteines (Conjugation Method 1, DAR 8)) VH: QIQLVQSGAEVKKPGASVKISCKASGYSFTDYHMNWVRQAPGKGLEWIGNIDPYYGSPTYNHKFKGRVTLTVDTSTSTAYMELSSLRSEDTAVYYCANYGRGNSFPYWGQGTLVTVSS VL: DIVMTQSPSSLAVSLGERATINCKSSQSLLNSGNQRNYLTWYQQKPGQPPKLLIYWASTRESGVPDRFSGSGSGTDFTLTISSLQAEDVAVYYCQNDYSFPFTFGQGTKLEIKR | 11 | 0.184 | – | –
9D1-LD-37 (antibody, human IgG1, kappa, V domains shown, LD-37 linker-drug (Exatecan) on reduced interchain cysteines (Conjugation Method 1, DAR 8)) VH: QIQLVQSGAEVKKPGASVKISCKASGYSFTDYHMNWVRQAPGKGLEWIGNIDPYYGSPTYNHKFKGRVTLTVDTSTSTAYMELSSLRSEDTAVYYCANYGRGNSFPYWGQGTLVTVSS VL: DIVMTQSPSSLAVSLGERATINCKSSQSLLNSGNQRNYLTWYQQKPGQPPKLLIYWASTRESGVPDRFSGSGSGTDFTLTISSLQAEDVAVYYCQNDYSFPFTFGQGTKLEIKR | 0.802 | – | – | –
9D1-LD-65 (antibody, human IgG1, kappa, V domains shown, LD-65 linker-drug (Exatecan) on reduced interchain cysteines (Conjugation Method 1, DAR 8)) VH: QIQLVQSGAEVKKPGASVKISCKASGYSFTDYHMNWVRQAPGKGLEWIGNIDPYYGSPTYNHKFKGRVTLTVDTSTSTAYMELSSLRSEDTAVYYCANYGRGNSFPYWGQGTLVTVSS VL: DIVMTQSPSSLAVSLGERATINCKSSQSLLNSGNQRNYLTWYQQKPGQPPKLLIYWASTRESGVPDRFSGSGSGTDFTLTISSLQAEDVAVYYCQNDYSFPFTFGQGTKLEIKR | 1.61 | 0.701 | 0.086 | –
9D1-LD-88 (antibody, human IgG1, kappa, V domains shown, LD-88 linker-drug (Exatecan) on reduced interchain cysteines (Conjugation Method 1; DAR printed as 1 in Table 1)) VH: QIQLVQSGAEVKKPGASVKISCKASGYSFTDYHMNWVRQAPGKGLEWIGNIDPYYGSPTYNHKFKGRVTLTVDTSTSTAYMELSSLRSEDTAVYYCANYGRGNSFPYWGQGTLVTVSS VL: DIVMTQSPSSLAVSLGERATINCKSSQSLLNSGNQRNYLTWYQQKPGQPPKLLIYWASTRESGVPDRFSGSGSGTDFTLTISSLQAEDVAVYYCQNDYSFPFTFGQGTKLEIKR | – | – | – | 1.46
9D1-LD-82 (antibody, human IgG1, kappa, V domains shown, LD-82 linker-drug (structure, preparation and DAR not described in the filing)) VH: QIQLVQSGAEVKKPGASVKISCKASGYSFTDYHMNWVRQAPGKGLEWIGNIDPYYGSPTYNHKFKGRVTLTVDTSTSTAYMELSSLRSEDTAVYYCANYGRGNSFPYWGQGTLVTVSS VL: DIVMTQSPSSLAVSLGERATINCKSSQSLLNSGNQRNYLTWYQQKPGQPPKLLIYWASTRESGVPDRFSGSGSGTDFTLTISSLQAEDVAVYYCQNDYSFPFTFGQGTKLEIKR | – | – | – | 8.01
9D1-LD-57 (antibody, human IgG1, kappa, V domains shown, LD-57 linker-drug (MMAE) on partially reduced interchain cysteines (Conjugation Method 2, DAR 4)) VH: QIQLVQSGAEVKKPGASVKISCKASGYSFTDYHMNWVRQAPGKGLEWIGNIDPYYGSPTYNHKFKGRVTLTVDTSTSTAYMELSSLRSEDTAVYYCANYGRGNSFPYWGQGTLVTVSS VL: DIVMTQSPSSLAVSLGERATINCKSSQSLLNSGNQRNYLTWYQQKPGQPPKLLIYWASTRESGVPDRFSGSGSGTDFTLTISSLQAEDVAVYYCQNDYSFPFTFGQGTKLEIKR | 0.53 | 0.053 | – | –
9D1-LD-74 (antibody, human IgG1, kappa, V domains shown, LD-74 linker-drug (Exatecan, polysarcosine side chain) on reduced interchain cysteines (Conjugation Method 1, DAR 8)) VH: QIQLVQSGAEVKKPGASVKISCKASGYSFTDYHMNWVRQAPGKGLEWIGNIDPYYGSPTYNHKFKGRVTLTVDTSTSTAYMELSSLRSEDTAVYYCANYGRGNSFPYWGQGTLVTVSS VL: DIVMTQSPSSLAVSLGERATINCKSSQSLLNSGNQRNYLTWYQQKPGQPPKLLIYWASTRESGVPDRFSGSGSGTDFTLTISSLQAEDVAVYYCQNDYSFPFTFGQGTKLEIKR | 2.22 | 1.16 | – | –
9D1-LD-66 (antibody, human IgG1, kappa, V domains shown, LD-66 linker-drug (Exatecan) on reduced interchain cysteines (Conjugation Method 1, DAR 8)) VH: QIQLVQSGAEVKKPGASVKISCKASGYSFTDYHMNWVRQAPGKGLEWIGNIDPYYGSPTYNHKFKGRVTLTVDTSTSTAYMELSSLRSEDTAVYYCANYGRGNSFPYWGQGTLVTVSS VL: DIVMTQSPSSLAVSLGERATINCKSSQSLLNSGNQRNYLTWYQQKPGQPPKLLIYWASTRESGVPDRFSGSGSGTDFTLTISSLQAEDVAVYYCQNDYSFPFTFGQGTKLEIKR | 1.09 | 0.996 | 0.996 | –
9D1-LD-73 (antibody, human IgG1, kappa, V domains shown, LD-73 linker-drug (Exatecan, PEG side chain) on reduced interchain cysteines (Conjugation Method 1, DAR 8)) VH: QIQLVQSGAEVKKPGASVKISCKASGYSFTDYHMNWVRQAPGKGLEWIGNIDPYYGSPTYNHKFKGRVTLTVDTSTSTAYMELSSLRSEDTAVYYCANYGRGNSFPYWGQGTLVTVSS VL: DIVMTQSPSSLAVSLGERATINCKSSQSLLNSGNQRNYLTWYQQKPGQPPKLLIYWASTRESGVPDRFSGSGSGTDFTLTISSLQAEDVAVYYCQNDYSFPFTFGQGTKLEIKR | 1.4 | 1.27 | – | –
9D1-LD-31-P1 (antibody, human IgG1, kappa, V domains shown, LD-31-P1 linker-drug (Exatecan) on reduced interchain cysteines (Conjugation Method 1, DAR 8)) VH: QIQLVQSGAEVKKPGASVKISCKASGYSFTDYHMNWVRQAPGKGLEWIGNIDPYYGSPTYNHKFKGRVTLTVDTSTSTAYMELSSLRSEDTAVYYCANYGRGNSFPYWGQGTLVTVSS VL: DIVMTQSPSSLAVSLGERATINCKSSQSLLNSGNQRNYLTWYQQKPGQPPKLLIYWASTRESGVPDRFSGSGSGTDFTLTISSLQAEDVAVYYCQNDYSFPFTFGQGTKLEIKR | 4.35 | – | – | –
9D1-vc-PAB-MMAE (antibody, human IgG1, kappa, V domains shown, MC-VC-PAB-MMAE linker-drug on partially reduced interchain cysteines (Conjugation Method 2, DAR 4)) VH: QIQLVQSGAEVKKPGASVKISCKASGYSFTDYHMNWVRQAPGKGLEWIGNIDPYYGSPTYNHKFKGRVTLTVDTSTSTAYMELSSLRSEDTAVYYCANYGRGNSFPYWGQGTLVTVSS VL: DIVMTQSPSSLAVSLGERATINCKSSQSLLNSGNQRNYLTWYQQKPGQPPKLLIYWASTRESGVPDRFSGSGSGTDFTLTISSLQAEDVAVYYCQNDYSFPFTFGQGTKLEIKR | 0.407 | 0.064 | – | –
9D1-LD-72 (antibody, human IgG1, kappa, V domains shown, LD-72 linker-drug (Exatecan) on reduced interchain cysteines (Conjugation Method 1, DAR 8)) VH: QIQLVQSGAEVKKPGASVKISCKASGYSFTDYHMNWVRQAPGKGLEWIGNIDPYYGSPTYNHKFKGRVTLTVDTSTSTAYMELSSLRSEDTAVYYCANYGRGNSFPYWGQGTLVTVSS VL: DIVMTQSPSSLAVSLGERATINCKSSQSLLNSGNQRNYLTWYQQKPGQPPKLLIYWASTRESGVPDRFSGSGSGTDFTLTISSLQAEDVAVYYCQNDYSFPFTFGQGTKLEIKR | 1.08 | 0.553 | – | –
9D1-LD-71 (antibody, human IgG1, kappa, V domains shown, LD-71 linker-drug (SN38) on reduced interchain cysteines (Conjugation Method 1, DAR 8)) VH: QIQLVQSGAEVKKPGASVKISCKASGYSFTDYHMNWVRQAPGKGLEWIGNIDPYYGSPTYNHKFKGRVTLTVDTSTSTAYMELSSLRSEDTAVYYCANYGRGNSFPYWGQGTLVTVSS VL: DIVMTQSPSSLAVSLGERATINCKSSQSLLNSGNQRNYLTWYQQKPGQPPKLLIYWASTRESGVPDRFSGSGSGTDFTLTISSLQAEDVAVYYCQNDYSFPFTFGQGTKLEIKR | – | – | 0.397 | –
9D1-LD-31-P2 (antibody, human IgG1, kappa, V domains shown, LD-31-P2 linker-drug (Exatecan) on reduced interchain cysteines (Conjugation Method 1, DAR 8)) VH: QIQLVQSGAEVKKPGASVKISCKASGYSFTDYHMNWVRQAPGKGLEWIGNIDPYYGSPTYNHKFKGRVTLTVDTSTSTAYMELSSLRSEDTAVYYCANYGRGNSFPYWGQGTLVTVSS VL: DIVMTQSPSSLAVSLGERATINCKSSQSLLNSGNQRNYLTWYQQKPGQPPKLLIYWASTRESGVPDRFSGSGSGTDFTLTISSLQAEDVAVYYCQNDYSFPFTFGQGTKLEIKR | 2.91 | – | – | –
9D1-LD-89 (antibody, human IgG1, kappa, V domains shown, LD-89 linker-drug (Exatecan) on reduced interchain cysteines (Conjugation Method 1; DAR printed as 1 in Table 1)) VH: QIQLVQSGAEVKKPGASVKISCKASGYSFTDYHMNWVRQAPGKGLEWIGNIDPYYGSPTYNHKFKGRVTLTVDTSTSTAYMELSSLRSEDTAVYYCANYGRGNSFPYWGQGTLVTVSS VL: DIVMTQSPSSLAVSLGERATINCKSSQSLLNSGNQRNYLTWYQQKPGQPPKLLIYWASTRESGVPDRFSGSGSGTDFTLTISSLQAEDVAVYYCQNDYSFPFTFGQGTKLEIKR | – | – | – | 0.757
9D1-ELC122 (antibody, human IgG1, kappa, V domains shown, ELC122 linker-drug (SN38) on reduced interchain cysteines (Conjugation Method 1, DAR 8)) VH: QIQLVQSGAEVKKPGASVKISCKASGYSFTDYHMNWVRQAPGKGLEWIGNIDPYYGSPTYNHKFKGRVTLTVDTSTSTAYMELSSLRSEDTAVYYCANYGRGNSFPYWGQGTLVTVSS VL: DIVMTQSPSSLAVSLGERATINCKSSQSLLNSGNQRNYLTWYQQKPGQPPKLLIYWASTRESGVPDRFSGSGSGTDFTLTISSLQAEDVAVYYCQNDYSFPFTFGQGTKLEIKR | – | – | 0.628 | –
9D1-LD-12 (antibody, human IgG1, kappa, V domains shown, LD-12 linker-drug (Exatecan) on reduced interchain cysteines (Conjugation Method 1, DAR 8)) VH: QIQLVQSGAEVKKPGASVKISCKASGYSFTDYHMNWVRQAPGKGLEWIGNIDPYYGSPTYNHKFKGRVTLTVDTSTSTAYMELSSLRSEDTAVYYCANYGRGNSFPYWGQGTLVTVSS VL: DIVMTQSPSSLAVSLGERATINCKSSQSLLNSGNQRNYLTWYQQKPGQPPKLLIYWASTRESGVPDRFSGSGSGTDFTLTISSLQAEDVAVYYCQNDYSFPFTFGQGTKLEIKR | 0.799 | 0.58 | – | –
